Results taken from the supplement of paper PMC12042874.
± gives the uncertainty stated by the source.

assay: amyloid nucleation score (Sup35N fusion, yeast selection) (log enrichment); library NNK3; higher = more nucleation; inactive = no reads after selection
Outline: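 In psi-negative yeast, Sup35N fusions carrying peptides of 20 random codons were induced with 100 μM copper sulfate for 24 hours. The cells then grew 7 days at 30°C on medium lacking adenine and uracil, and plasmid inserts from input and output were Illumina-sequenced, excluding sequences with under 100 input reads. Nucleation score is the DiMSum log enrichment of output over input reads, centred on the mode score of non-aggregating sequences.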

| Substance | amyloid nucleation score |
| --- | --- |
| MIVVHEFLKGYVFSYRLYNL | inactive |
| ETFFIYDVALQ | inactive |
| LLIIVYLVWCALIRRGTQPR | inactive |
| RWQRLSRHGISDSPLAREAA | -0.917 ± 1.8 |
| KREECILWLPLGNLLYNVLR | inactive |
| FNVLMGTSYFAISEIASVPA | inactive |
| MDPESVWED | inactive |
| ACRGLVDVNNWLSGYGIRIG | inactive |
| LQYRSL | inactive |
| SCKLSHFEVTMECLEYFWMM | inactive |
| YSIDLFIRESDFDVHKKHIS | inactive |
| DSVNRCFARGILSCLVCL | inactive |
| WMGSVCSFRSIPCSMSTLR | inactive |
| PTFFTSVLGFNYRVLYRIAV | inactive |
| HMVSFAERTVSDVGTVNPGQ | inactive |
| SLDFIHRNFVARQCIHNKGH | inactive |
| PVTIFKETCWP | inactive |
| HEYKCKL | inactive |
| DFEVR | inactive |
| VSCDEMHKINFYLKANVVLV | inactive |
| GVLLNTSELGSNGMDSKTLD | inactive |
| CVNTHRY | inactive |
| IDCCWSCV | 0.16 ± 0.34 |

| Substance | amyloid nucleation score |
| --- | --- |
| HYAVQYTNRYKGFKLHKQHN | inactive |
| NFATRDNWYRVTQTLEDWIK | inactive |
| IVYGKHAWWIRLGSIHVFYY | inactive |
| VSIHCGRVYDWEGGFGERVN | inactive |
| ELLVNN | inactive |
| GVSISQPTILQWSTVRTSID | 0.04 ± 0.85 |
| YSGSNCLSSDEYWWRDDSLT | inactive |
| MWEKFQWCNIINGINSVCVV | 0.962 ± 0.16 |
| HLLIHANF | 1.25 ± 0.14 |
| FYVLNMNDLTSGLDMHVKS | inactive |
| QTMKWSIVHGQKTGGSWVDM | inactive |
| AQAVHAEVVQFILYFGESPL | 2.47 ± 0.08 |
| LKYIDTSFMLGFSIVSLRFQ | inactive |
| YFSSLNSNFWGVVRRRLLYN | inactive |
| KKFLAPCSRCWPKMDITRLN | inactive |
| TCFVLQNKYVSRCGCWMCYS | 2.12 ± 0.051 |
| GIVDQFRTVSNNVLNQYEIW | inactive |
| IAFTNLVKVCGLTGYA | inactive |
| QVGQESDSCLSSIRLCFKYR | 0.163 ± 0.24 |
| LIPASLKADRQCAHSRYSR | inactive |
| RDIMGLDLFQARNTTRSNYK | inactive |
| RAFFDC | -0.47 ± 0.66 |
| SVSGKRFDVMVLFLHSSKRL | inactive |

| Substance | amyloid nucleation score |
| --- | --- |
| YFFSVAISKVYDFSVKSRCT | 1.98 ± 0.086 |
| CWFLVTMGYAGCFFSPVTQL | inactive |
| HYYVSTDLWSIMMYTILRPC | inactive |
| VSYSNDKGIWIYGTSLYPGA | inactive |
| MNNCLSVDKCFHFMLGFSP | inactive |
| VKGGRLISLNRVLFLEDPVG | inactive |
| VCVRYLFLFFSLIFYSGT | inactive |
| RCGYHFHQVAFFTKDVKVVE | inactive |
| NVIISQA | inactive |
| YLVMTSLIC | inactive |
| FHNCLGTNKNGVLLNGMVWN | inactive |
| HGMVRCKSDQACDSMVGCVR | inactive |
| LLLVKSTI | -0.176 ± 0.56 |
| ASRKVTRVVMHINLRLWYET | inactive |
| ARYETRMYKFKNTPGVAERR | inactive |
| VLVNHGFYW | inactive |
| IYHYIYSASMKLNTHGELMP | inactive |
| SSITRVEKSCIFLCTALMLR | inactive |
| MVFQYRYFSLLLVWSNCSGA | inactive |
| LESSVMLLKRRIILVLCLHG | inactive |
| LFMLVAE | inactive |
| MVGWVWERMRHAPWE | inactive |
| TISATLVYQ | inactive |

| Substance | amyloid nucleation score |
| --- | --- |
| NTAPNISRSVIVCYYDDGEK | inactive |
| LMAVHMGMCMHEILHAVSLR | inactive |
| QVLWTGEMDSMICWA | inactive |
| NVKTGNKPRDTQSRYVLPES | inactive |
| YTIALTRGLKFMVINCRTFY | inactive |
| CEKGLFLFSFSKFTSYPPGM | -0.435 ± 0.55 |
| IVKRFHYYMSVRKLMSKFGL | inactive |
| VFISLVLSDLRSFARVVLGG | inactive |
| LNRDGVISMFFSFCGGTRPR | -0.452 ± 0.93 |
| ADWYWFMAMQRNNLL | inactive |
| YHPYRWLHESRL | inactive |
| GCVRGCTATWRMLCAGSKCC | 0.71 ± 0.33 |
| LLFCVLFATPINCISLIMSE | inactive |
| TCWRGELMELTDMLSVALLR | inactive |
| EVKSDVMKLFNCVFSCPLTF | 2.38 ± 0.073 |
| VGYGFIC | inactive |
| LNYNF | inactive |
| ANSWSMLHVECFYML | 2.44 ± 0.058 |
| DWVMADRMSPVKIMYATSSG | inactive |
| RDCDDQ | inactive |
| YLKMLSVLKWRKNISRFVLP | inactive |
| FIFAG | inactive |
| SNHVWFDLFGEYDASCFCTV | inactive |

| Substance | amyloid nucleation score |
| --- | --- |
| SFSRCLNSLEVRNKNSWWVG | -0.181 ± 0.75 |
| IYGVSESVYWIVWANIGVLQ | inactive |
| MRKLDPFNSKP | inactive |
| MFLCYNVLVVTESLGLAHLD | inactive |
| FLFSW | -0.483 ± 1.9 |
| MYKFCSY | inactive |
| LEKELRLCSKAWLSSQISIV | inactive |
| HLKCLGNKACEGRVITHVAD | inactive |
| FIEVYCKMGCLRYLVWGWSD | inactive |
| LRVMSI | -0.964 ± 2.5 |
| IFLFSSRCALDNIVEPWFFW | inactive |
| YLLRHILSIWKGWDWGTSQ | inactive |
| YISYLDMDCEFVLS | inactive |
| SSSQTISQGDSGHLHYKVWS | inactive |
| VLDVFKGIW | inactive |
| ICINVESIKPMRWQAMI | inactive |
| CYQVWPARLSILHARLLGGR | inactive |
| LFNLGICYTISNYSLSLEQS | 2.1 ± 0.086 |
| DCALAAGMK | inactive |
| IDRFHYSLTTDT | inactive |
| IFSNRGFQLCWFSYMLSVHT | inactive |
| HDNQFYVMLWAISAAYRLAS | inactive |
| IDLTTDSLDM | inactive |

| Substance | amyloid nucleation score |
| --- | --- |
| FALTIGSFSRMNHTVPNPFE | inactive |
| TLNSDVSGSNIWASSYG | inactive |
| VMCVFLLYI | 1.08 ± 0.11 |
| VLGDMVYGGHAL | inactive |
| CPPGWRCQHKLDLTLGPDRW | inactive |
| PHVLVESLW | inactive |
| LVNDKMLCNYHAMMRLFFFM | inactive |
| HFPTCWVGYVKHAVLRYLIY | inactive |
| MCKMLFSFLCLHKYCWVNVL | inactive |
| GIFEFKLNSLNSNERGLRAG | inactive |
| SVTLRATGSGNRRYDAIRNY | inactive |
| TITKVNFWEQVRRLLQSGTQ | inactive |
| QLKHWTEIKQVLVVSREWVH | -0.395 ± 1.3 |
| LRLNLMSILKVEYRCSMITW | inactive |
| TKKLKIPYFANFYTRFRHFK | inactive |
| QSSIVWCVSFIKSRCDFSIC | inactive |
| RHGLAWTYVKKSKMRTAAGR | inactive |
| HSKFWFCLFRIFQVSGLFNR | inactive |
| DFFLRVMYMKWNAPL | inactive |
| QSVSVGLCCWAMPVK | inactive |
| NFVDVRIKFTLTADLGHNSG | 0.756 ± 0.21 |
| IMSNTLIHYLHRMLSSALCY | inactive |
| SRRSMHRVVSHVREGS | -0.164 ± 0.96 |

| Substance | amyloid nucleation score |
| --- | --- |
| VSTCT | inactive |
| FVVFIRDIICMVNNFMLMRM | inactive |
| TWVWGKFFGFLNSDISDVRH | inactive |
| LCLCYNLMSLLLLHLCREGQ | inactive |
| SNLDFMMGINSFRRVKAEPG | -0.251 ± 0.57 |
| FFCFLDYDYSIFEQVNEGLS | inactive |
| WMDNAI | inactive |
| TRPESETHGMMR | inactive |
| FRKTGFSFVFLIVDEYFICN | inactive |
| AMKPMKNRSASLVGN | inactive |
| SVNWMVSKLRSPNSQGLAIE | inactive |
| EVFHIRMSVF | -0.577 ± 2.4 |
| DRPSWNMRSLNFSGQSVR | -0.59 ± 1.4 |
| MTLWDWDYRLIVRIQLRSTQ | inactive |
| DFRRANGEYWLTAAPMLIHT | 0.396 ± 0.28 |
| YSFRCVSTSVNGNRVMAAVS | inactive |
| SGFHERCFINQPVFST | inactive |
| RFIWIGIWKEGEGLADYSEK | inactive |
| RLNAYMCLEMVTLSTRKHVG | 1.79 ± 0.079 |
